Measured values: US20100145008A1 (published 2010)

Biological target: T1, lysozyme (Gallus gallus (Chicken), UniProt P00698 19-147)
T1 construct: also called Lysozyme (14.3 kDa)
Test: Biacore, preliminary data

T1 sequence (P00698 19-147 limits assumed, form in doubt): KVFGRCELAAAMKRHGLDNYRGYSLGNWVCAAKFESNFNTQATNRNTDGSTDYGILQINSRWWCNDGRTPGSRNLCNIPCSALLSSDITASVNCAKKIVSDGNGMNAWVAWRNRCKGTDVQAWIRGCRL

Binder | Kd [µM]
Lys_H4 (designed binder) GSVKVKFFWNGEEKEVDTSKIVWVKRAGKCVLFIYDDNGKNGYGDVTEKDAPKELLDMLARAEREKKL | ~0.003
Lys_B3 (designed binder) GSVKVKFDLCGEEKEVDTSKIVYVARDGKTVLFMYDDNGKSGRGEVSEKDAPKELLDMLARAEREKKL | ~0.015
Lys_H8 (designed binder) GSVKVKFVMCGEEKEVDTSKIITVKRTGKEVDFLYDDNGKNGYGTVYEKDAPKELLDMLARAEREKKL | ~0.025
